Molecular target: HLA-A*02:01 (Homo sapiens, UniProt P04439, D140Y/D185E/D98H/E176V/E277Q/G131W/G231S/I119V/I121R/I166T/I218V/L300P/L318F/N151K/N90K/P208A/P217A/Q86G/Q94H/R138H/R169H/T345S)
Assay: MHC binding assay (UV-ligand exchange, ELISA of stabilized MHC complexes)
Conditions: MHC class I binding score; binding to HLA-A*02:01 ranged by peptide exchange yield (UV-ligand exchange, ELISA)
How it was run: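 Binding scored as exchange yield, detected via β2m of stabilized complexes in an HRP/TMB ELISA read at 450 nm after streptavidin capture of 100-fold diluted monomers for 1 h at 37 °C. Complexes came from UV irradiation cleaving a photolabile peptide, exchanged for the candidate.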

| Peptide exchange | Substance |
| --- | --- |
| ″+++″ (≥50% = +++) | 202 (ALLDQQGSRWTL; listed as Homo sapiens) [compound 202] |
| ″+++″ (≥50% = +++) | 617 (ALMYESEKVGV; listed as Homo sapiens) [compound 617] |
| ″+++″ (≥50% = +++) | 173 (LLDSASAGLYL; listed as Homo sapiens) [compound 173] |
| ″++″ (≥20% = ++) | 157 (SLNDEVPEV; listed as Homo sapiens) [compound 157] |
| ″++″ (≥20% = ++) | 447 (QLVPALAKV; listed as Homo sapiens) [compound 447] |
| ″+++″ (≥50% = +++) | 463 (SLVESHLSDQLTL; listed as Homo sapiens) [compound 463] |
| ″++++″ (≥75% = ++++) | 89 (YILPTETIYV; listed as Homo sapiens) [compound 89] |
| ″+++″ (≥50% = +++) | 594 (IMLKGDNITL; listed as Homo sapiens) [compound 594] |
| ″+++″ (≥50% = +++) | 117 (ILPDGEDFLAV; listed as Homo sapiens) [compound 117] |
| ″+++″ (≥50% = +++) | 496 (FLVEKQPPQV; listed as Homo sapiens) [compound 496] |
| ″++″ (≥20% = ++) | 124 (ALYETELADA; listed as Homo sapiens) [compound 124] |
| ″++″ (≥20% = ++) | 115 (AIAGAGILYGV; listed as Homo sapiens) [compound 115] |
| ″++″ (≥20% = ++) | 226 (MLYVVPIYL; listed as Homo sapiens) [compound 226] |
| ″++″ (≥20% = ++) | 229 (RLPGPLGTV; listed as Homo sapiens) [compound 229] |
| ″+++″ (≥50% = +++) | 399 (YLFEPLYHV; listed as Homo sapiens) [compound 399] |
| ″++″ (≥20% = ++) | 63 (YLLPSGGSVTL; listed as Homo sapiens) [compound 63] |

| Peptide exchange | Substance |
| --- | --- |
| ″+++″ (≥50% = +++) | 439 (YLLQEIYGI; listed as Homo sapiens) [compound 439] |
| ″+++″ (≥50% = +++) | 74 (ALLDPEVLSIFV; listed as Homo sapiens) [compound 74] |
| ″++″ (≥20% = ++) | 355 (SIQQSIERLLV; listed as Homo sapiens) [compound 355] |
| ″+++″ (≥50% = +++) | 160 (FLFDEEIEQI; listed as Homo sapiens) [compound 160] |
| ″+++″ (≥50% = +++) | 249 (LLDGFLVNV; listed as Homo sapiens) [compound 249] |
| ″++++″ (≥75% = ++++) | 104 (STMEQNFLL; listed as Homo sapiens) [compound 104] |
| ″++++″ (≥75% = ++++) | 611 (YLLDDGTLVV; listed as Homo sapiens) [compound 611] |
| ″+++″ (≥50% = +++) | 171 (LLLPLQILL; listed as Homo sapiens) [compound 171] |
| ″++″ (≥20% = ++) | 375 (SLTETIEGV; listed as Homo sapiens) [compound 375] |
| ″++″ (≥20% = ++) | 258 (ELAERVPAI; listed as Homo sapiens) [compound 258] |
| ″++″ (≥20% = ++) | 186 (TLFFQQNAL; listed as Homo sapiens) [compound 186] |
| ″+++″ (≥50% = +++) | 587 (VMNDRLYAI; listed as Homo sapiens) [compound 587] |
| ″+++″ (≥50% = +++) | 309 (GLFDGVPTTA; listed as Homo sapiens) [compound 309] |
| ″++++″ (≥75% = ++++) | 320 (KMFEFVEPLL; listed as Homo sapiens) [compound 320] |
| ″+++″ (≥50% = +++) | 391 (YVYPQRLNFV; listed as Homo sapiens) [compound 391] |
| ″+++″ (≥50% = +++) | 30 (LILDWVPYI; listed as Homo sapiens) [compound 30] |
